A short description of this data set: label from the status in PepcDB records.

Turning to “MTTDTGELVRTNQGTSSEVSSETGTAVQTLSVLYGSQTGNAEFLASKIVDKANGQGYAAELMSLDMLTPQEAARKDRLLIVTATHDNGHMPDNAQPFWDQLQSAGSDLFKDVPFAVLAIGDSMYEDFCKAGSDLDERLGKLGGKRILDRLDCDVDYDLTSGKWIRGMLETFKTVVPKKRDNNPEDSTVPGANPAEQPKGTRREPDTATVVEARLLSAPESEKEVWHYELEVSGDSRNYRPGDSLAVIPTNNIELVEDLLGFLGLAGSEVFGEDGKTVRETLQNDYELRLPHLGIVAWLVENLAPDHPVRNLVESGDRNALEDWLWGRDMLDVLQETRTTDVDPGEFLSMLRPLQHRSYSIASSPLADGDRVHLTVSTVQYETAGRRHSGACSGFLQSAAQTKTTIKVFPLPAHEFHLPHDNSADVIMVGPGVGVAPFRGFLRDREVSQARGRNWLFFGDRHEKPSWLYQEEMEELQSNGVLNRLSVAFSRDQQGKVYVQDRIREEGDGIFAWLSGGASVYVCGGKQIAPDIDEALLAVLRSHGAMTPEKAHDYLQSLKSEGRYVKDVY”, the protein production entry is recorded as “failed”.

Turning to “MTTIDIIILIIIGAGVVAGFMKGFIRQLASILGLVVGLLAAKALYATLAEKLCPAVTDSMTVAQVLAFIVIWIAVPLIFTLVASLLTKAMEAISLGWLNRWLGSGLGALKFLLLTSLVICVIEFIDSDNKLISATKKSESLLYYPMETFAGIFFPAAKNITQQYILDNKDATRRTQ”, the protein production entry is given as “failed”. “MTTKPVLVIGGTGKTGRRVVRLLRERGVPARPASRSGEVRFDWLDESTWGPALDGASGVYIVQNDGDPRTRALVRTAVASGVQRLALLSARGVDTPGYYGEDPATSEAFLEGEAAVRESGVDWTVLRPGWFAQNFDEGFFNEGVLAGELRLPAGDGAASWIDVEDIAAVAVAALTEDGHAGRTYELSGPAPLPLAEVLSVIEAAAGRKVRYTPLTTEEFIAELGAQGIPAEEAGLWAAALYPVERGFESKVSDGVRQALGRAPRTFAEYAEAAVAEGAWRD”: the protein production result was “failed”. For “MTTLEAFAKARSEGRAALIPYLTAGFPSREGFLQAVEEVLPYADLLEIGLPYSDPLGDGPVIQRASELALRKGMSVQGALELVREVRALTEKPLFLMTYLNPVLAWGPERFFGLFKQAGATGVILPDLPPDEDPGLVRLAQEIGLETVFLLAPTSTDARIATVVRHATGFVYAVSVTGVTGMRERLPEEVKDLVRRIKARTALPVAVGFGVSGKATAAQAAVADGVVVGSALVRALEEGRSLAPLLQEIRQGLQRLEANPGLKESSKKPLP” the value was “not failed”; for “MTTLSTKQKQFLKGLAHHLNPVVMLGGNGLTEGVLAEIENALNHHELIKVKVAGADRETKQLIINAIVRETKAAQVQTIGHILVLYRPSEEAKIQLPRK”, “not failed”; for “MTTLVLRAKRWLYLLHRWMGVGLCLLFVLWFASGVVMMYVGYPNLTPAERLAHLPGLDAAQVRLGPAQALRAAGLEQAAEIRLAASRAGQPFYAVVPLAGGRTLRVDAASGQLAGRATPAQARASALAYFGARHAAREGGLVSEDAHTHTRTLDEHRPLYVFEMDDPARTRLYVSSSTGEVVRDAPRLERGWNYVGAWLHWLYPLRGAYWHDIVVWLSVLGVALTVSGTVVGLWRWRFARPYASGSRSPYRERFMRWHHIAGLLFAATTLTWIFSGLMSMNPWQVFGTRATQLDRAAYRGGPLQADNLPAGPAVAMPARKLVWTRVAGQTLLQVYGAAGAPALRTADGAAPRTLAPATLGVALGRLLPSAAPPRIEVLDGYDSYYYARAPHTMLGHVEKPLPVWRVVYDDPRGTWLHVDPRSGEILGSLDRPRRVSRWLFAFLHSWDWPPLLQRRPAWDAVLIVLSLGGLLLSGAGVVIGWRRVGRKLR”, “failed”. As to “MTTLVPLNRIDSQKIEDLLDIGFGKDRHGRTAYRLRQGVSAIPELSFAAVDGDILQGIIQCWPIRLSCLNGKKLPMILLGPVAVHPDYQGHGIGQTLVQHSLDVADSSDITGHDAVMLIGDPEYYNRFFGFSDEETGDWRLPGPVEKRRLLARLTSPRL”, the protein production entry is reported as “failed”. For “MTTPFVLAVPSKGRLQENAEAFFARAGLTLSKLGGARDYRGTIAGLDNVEIAYLSASEIAAQLARGTVHLGITGEDLIRESIADADKKVALIEGLGFGGANVVVAVPQAWIDVRTMADLDDVTTGFRAQHNRRMRVATKYINLTRNFFAAHGVVDYRIVESAGATEGAPAVGTAEMIVDITSSGATLVANGLKVLDDGVILRSQANLVASRAADWSADALETARVILDRIAARARANKYKEVRTRFAGCDASLLTEAHNRFGVVSPFGGPTSSGMITLHCPPAQLYALGSFLRDHGADTVSIASLDYVLDRENPLFAKLESFLRQ” the value was “failed”. For “MTTPLSPEATPPHGDLASGNVTRRILGIVVFNFIAYLSVGLPIAVVPGFVHGDLGYSAVLAGLAVSIQYLATLLSRPWAGSLCDMKGPKRSVLTGLLLCAGSGLLMLVAAQFAGNDWLALGWLLSSRLMLGAGESLVTTGTIAWGIGSVGARHTAKVISWNGVTTYGALAVGAPVGVLLAGHGGLTAIGIVTSVIAGASWLLARRQAAVPILKGERLPFRSVFRAMSPFGLCLGLGSVGFGAITAFITLYYAGHGWDHAALALTALGTCFVLTRLIMADSITRFGGYPVALVSFAVEAAGLAMLWLAQAPWQALAGAAVVGFGFSLVFPSLGIEAVKRVPATNRGSALGAYALFFDFSLGLTGPVAGLITKHAGYPAVYLFAALAAVLALVLSQVLAARYRDRLAPAT” the value was “failed”; for “MTTPNFELYGYFRSSCSGRLRIAFHLKSIPYTRHPVNLLKGEQHSDTYKSLNPTNTVPLLVVSNINNTVSPSSASFSIGQSLAALEYLEEALPTNARPLLPPISNPVARAHVRTICNIIACDVQPVTNLKIQKKVKALDGDPTVWSRDLATQGFGAVEKLLELSAGRFCVGDEITLADVCLVPAVWAAERVGMDLARFPITKRVFEEMLKEEAVQKAHWQKQEDTPEDLRA”, “not failed”. Consider “MTTRILTGITPTGTPHLGNYAGAIRPAILASRRSDVDSFYFLADYHALIKCDDPARIQRSRLEIAATWLAGGLDVERATFYRQSDIPEIPELTWLLTCVSAKGLLNRAHAYKAAVDRNVEAGEDPDAGVTMGLYSYPVLMAADILMFNAHKIPVGRDQVQHVEMARDIGQRFNHLFGNGREFFVLPEAVIEENVATLPGLDGRKMSKSYDNTIPLFSPSRQLKDAIARIVTDSRAPGEPKDPDSSHLFLLYSAFASAEQVAAFRQELLEGLAWGEAKQRLFQLLDNELGEARERYQALIAKPDDIEDILLAGAAKARRIATPFIAELREAVGLRSLREPLKSAESGKKKAAKAARLVSFRDDDGSFRFRLLDAAGEQLLLSRAFADGKAAGAVSKRLLAGETADLRAEGNAFGLWLDGEAVAQSPAFADAAARDAAIERTREALAPQ”, for which the protein production result is reported as “failed”. Take “MTTTSSINERQVLKHLQAQLPDCLLLDRFHLKRRLQQVGAMLEQGKPVDKLMTELATKVQTSLQRRQLRQEQLPKPEYPAELPVSARKDEIAQAIAKHQVVIVSGETGSGKTTQLPKICLELGRGVAGLIGHTQPRRIAARSVASRIAQELKSPLGEAVGYKVRFNDRLSETTYIKLMTDGILLAETQGDRFLNAYDTIIIDEAHERSLNIDFLLGYLKQLLPRRPDLKVIVTSATIDAERFSRHFNGAPVIEVSGRTYPVEIRYRPLGSRRMVVAPPAPVAAPVPVVAQKEEAPQEDIIDIGIKRKAGNIDPSIRKWLEDDNDVEVLGQDIMGIQRKPRAEAKWLEEDDAEEAMEEAILDSVEQLSRLGGGDILVFLPGEREIRETADYLNKHLRHVEILPLFARLSIEDQQKVFRSSGGRRVVLATNVAETSLTVPGIKYVIDTGLARVNRYSARAKVEQLQVEKISQAAARQRAGRCGRVSNGICIRLYDEADFNHRPEFTDPEILRSSLAAVILRMAALKLGNVQDFPFIEAPSSRYIADGYQLLQELGAVDAEQNITDTGRQLARLPLDPRVSRMILEGKKQGCVREILIIASALAIQDPRERPMDKREAADQAHAKFNVEHSDFLGFIKLWEWYEDALKTKKSNKDLLNKCHSNFLSFLRLKEWRELYQQLREIAEELELKLNEQPASYEQVHRALLAGLLGNIGFKDGEADNYLGARGIRFHIAPGSTLKKARPKWVMAAELMETTKLYARCVARIEPDWIEPLARGLTQSHYSDPRWDRKAAQVVAWERVSLYGLTVVPRRRVHYGPINPQESREIFIREALANMEFDTRAPFFAANRKLIAEIEELEHKARRQDVLVDEHTLFAFYDAIIPAGIVNGAGFEKWRQEAERETPRLLYLTRDHLMRHGAAGVTEVQFPESLELDGVKLPLKYRFEPGHPLDGVTATVPLALLNQLNPVEAEWLVPGMIREKVTALIKALPKTLRRVCVPVPDFVTGFLETATRKDGALLPALASYIQQRTGLKLSASEWQADALDAHLYMNFRVVDEKNRELGSGRDWHALKAQLGQAAQLTFRSNSPGIEKAGLKQWDFGDLPPTLSFSRDGRQLTGYPALEDNGDSVAIKLFDTELAARQSHRAGVRRLMRFELKEQMKQLEKGLPGFNQYALQLRSIMSPEELREDMLVAISDRAFIGEDELPRNSQDFMALKARARTRLPAVVEGAGRLATAIATEYTQLTQKLNAAPASLSRVKKELEGQLARLLPKRFFSATPWDTLQHLPRYIKAMRLRLEKYPGAIERDTRSGQAVQQIWERWESHVQGLRKANQEVPPAVLDYRWLIEELRVSLFAQELKTPFPVSVKRLDKAWEDMVRA”: the protein production entry is recorded as “failed”. Consider “MTTVIVANDLVGFGKVALTSSLLPIMSACQTEVLPLPTVLLSSHTGEFDNIYVRYLTVDMQGFCGQWKRLDFRVDGLVGGYFKSEEELGLVSQCLTKKRFLFLLDPIMGDNGRLYQGFDRDYVEAMKDFCQQADVIIPNLTEAALLTGSPYLEEGSYDMTTIENLLRNLSRLGPRKVILTGISFETEKIGLAYFDKETNQVIYRMRKRYQSHFYGSGDLLTAILSAGYFHNLDFLKVCDLALDFLNKVLLFTLSSGRPLKYGLCYEPLYRLFILEHHHHHH”, for which the protein production entry was “not failed”. In the case of “MTVDAATSAEVSQRVLAYLVEQLGVDVSFLRHNDRDRRATRLVAEWPPRLNIPDPDPLRLIYFADADPVFALCEHAKEPLVFRPEPATEDYQRLIEEARGVPVTSAAAVPLVSGEITTGLLGFIKFGDRKWHEAELNALMTIATLFAQVQARVAAEARLRYLADHDDLEHHHHHH” it was “not failed”; in that of “MTVDSNTSSGRGNDPEQIDLIELLLQLWRGKMTIIVAVIIAILLAVGYLMIAKEKWTSTAIITQPDAAQVATYTNALNVLYGGNAPKISEVQANFISRFSSAFSALSEVLDNQKEREKLTIEQSVKGQALPLSVSYVSTTAEGAQRRLAEYIQQVDEEVAKELEVDLKDNITLQTKTLQESLETQEVVAQEQKDLRIKQIEEALRYADEAKITQPQIQQTQDVTQDTMFLLGSDALKSMIQNEATRPLVFSPAYYQTKQTLLDIKNLKVTADTVHVYRYVMKPTLPVRRDSPKTAITLVLAVLLGGMIGAGIVLGRNALRSYKPKAL”, “not failed”; in that of “MTVGASQQTSTIALHNDTGMLMSNLNIFKQPNAFYLIFSIEFWERFGFYGMQAILTVYMVKIMGMDESASFVLFGAFSALVYGFVAIGGWIGDKVIGTKRAITLGAIVMMVGYVLLGLSTADHPLVGPTLIYIAMGFITVGNGLFKANPSSLLAKIYPENDPRLDGAFTMYYMAINLGSFFSMIITPLVAIKMGYGMAFGVSAVGLAITVVNFLFCLRMLKGTGSPADLMPVNKMYLVLVAVGSIIASLVCSYLLQNLTLAHGILVVAGLFILGCYFKEAFSMSGIERAKMLVAFILMLQGVVFFVLYFQMPTSLNFFAINNVEHHIFGFDVAPEQFQALNPFWIMIASPILAATYGKLGDKLAMPFKFAFGMALCALSFLVLSWGTLFANEQGIISSNWLIASYAFQSIGELLVSGLGLAMVAQLVPQRMMGFAMGMWFLTSASAAVIAGWVASLTSTPANVSGATESLHIYGEVFAQIGYVTAGIAIVTFMIAPKLTRICRGESEPLELVTQ”, “failed”.

(Values after a protein production outcome set (Wang et al. 2014).)
